Assay results: article PMC5665922, “Modulation of the Vault Protein-Protein Interaction for Tuning of Molecular Release” (Scientific Reports, 2017)

Tests used:
[1] = molecular target: T1, Histidine-tagged INT-interacting MVP domains (His-iMVP), major vault protein domains 3 to 5; assay: SPR; Biacore 3000, His-iMVP immobilised on CM5 (1010 RU), His-INT/DSA/3H injected at 0.12, 0.25 or 0.5 μM, 25 °C, pH 6.0; apparent constants; details: both partners purified
T1 construct: major vault protein (MVP), domains 3, 4 and 5 including the gap between domains 2 and 3, residues 102-276, PCR-amplified from the CP-MVP gene; numbers count on: PDB 2QZV; Cloned NdeI/BamHI in pET-28a; also called MVP domains 3 to 5; source: E. coli BL21(DE3), purified (HisTrap HP; SEC for SPR); not shown: His6, N-terminal, kept

[2] = molecular target: T1, Histidine-tagged INT-interacting MVP …; assay: SPR; Biacore 3000, His-iMVP amine-coupled to CM5 (410, 1860 or 1240 RU), His-INT or variant injected, 25 °C, 50 mM PBS, 150 mM NaCl, pH 7.4; 1-to-1 Langmuir fit; apparent constants; details: both partners purified
[3] = molecular target: the molecule itself; assay: SEC; His-INT alone at 0.05, 0.01 and 0.005 mM on Superdex 75 10/300 GL; dimer (D) and monomer (M) peaks; dimer to monomers

Row | Kd [1] [nM] | koff [1] [s⁻¹] | kon [1] [M⁻¹ s⁻¹] | Kd [2] [nM] | koff [2] [s⁻¹] | kon [2] [M⁻¹ s⁻¹] | Binder | stoichiometry N [3]
1 | 24 | 0.000258 | 10800 | 90 | 0.00134 | 14900 | His-INT/DSA/3H (His-INT with histidines substituted at the interaction surface) (domain or fragment) CIQHWQDAVPWTELLSLQTEDGFWKLTPELGLILNLNTNGLHSFLKQKGIQSLGVKGRECLLDLIATMLVLQFIRTRLEKEGIVFKSLMKMDDASISRNIPWAFEAIKQASEWVRRTEGQYPSICPRLELGNHWDHHTKQLLGLQPISTVSPLHRVLHYSQG | 
2 |  |  |  |  |  |  | Histidine-tagged vault-interacting domain of vault poly(ADP-ribose)-polymerase (His-INT) (domain or fragment, UniProt Q9UKK3 1563-1724, looked up, vault poly(ADP-ribose)-polymerase (VPARP), C-terminal INT domain, residues 1563-1724 of GenBank AF158255; Cloned NdeI/XhoI in pET-28a; Monomer and dimer in equilibrium; also called wild-type INT; full-length His-INT; source: E. coli BL21(DE3), purified (HisTrap HP, SEC; M fraction used); not shown: His6, N-terminal, kept) CIQHWQDAVPWTELLSLQTEDGFWKLTPELGLILNLNTNGLHSFLKQKGIQSLGVKGRECLLDLIATMLVLQFIRTRLEKEGIVFKSLMKMDDASISRNIPWAFEAIKQASEWVRRTEGQYPSICPRLELGNDWDSATKQLLGLQPISTVSPLHRVLHYSQG | 2
